Data from the supplement of paper PMC10126150.
± gives the standard deviation of the averaged measurements.

Tested on: ATP
Assay: switch fluorescence ratio, 500 uM ATP over buffer (Cy3 cluster intensity, sum of 5 cycles each) (fold (ratio)); higher = stronger signal-on switching upon ATP binding; sequences stand for … in TCGTCGGCAGCGTCAGATGTGTATAAGAGACAGTTTTTTTTTTTTTTTTTTTTTTTTT…TC
Settings: aptamer strand: ATP DNA aptamer (quencher-CACCTGGGGGAGTATTGCGGAGGAAGG + anchor), 100 nM annealed; ATP concentration: 500 uM
Outline: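 Imaging in selection buffer was followed by imaging after 15 min with 500 uM ATP at 22 °C, for Cy3-labelled switching-strand clusters annealed to 100 nM quencher-labelled ATP aptamer on a modified Illumina MiSeq flow-cell. Five of these buffer/ATP cycles ran, separated by NaOH stripping and re-annealing. The fluorescence ratio per cluster is summed target-cycle over summed buffer-cycle Cy3 intensity, averaged per switch-domain sequence; clusters outside 100-1000 RFU were removed.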
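Also: ATP exposure 15 min at 22 °C before imaging.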

| Sequence | switch fluorescence ratio |
| --- | --- |
| TTCGAAGTTG | 0.999 ± 0.034 |
| GTCGTAGGGA | 0.973 ± 0.013 |
| GGATGAGTGT | 0.982 ± 0.038 |
| GTTTCTATGG | 0.9961 ± 0.0085 |
| CTGACGAAGG | 1.05 ± 0.029 |
| TGCCGGACGA | 1.065 ± 0.0037 |
| GGTATCTAGA | 1.02 ± 0.0067 |
| CGCCTCGTAC | 1.9 ± 0.062 |
| TTGTTTTATT | 0.981 ± 0.038 |
| ATAGGGAGGT | 1.01 ± 0.032 |
| AAGAGTACAT | 0.993 ± 0.034 |
| TTTTAAATGG | 1.06 ± 0.052 |
| AAGTAAACAT | 1.06 ± 0.036 |
| AGGGAGTTCG | 0.977 ± 0.03 |
| AGTACACGTG | 0.993 ± 0.026 |
| CCATTCTTGA | 0.996 ± 0.037 |
| GTGTATCACG | 1.015 ± 0.0048 |
| GGGTCAGTAG | 1.032 ± 0.0087 |
| GATGGGAGGG | 0.99 ± 0.027 |
| GTCATAAGTG | 0.982 ± 0.04 |
| TAGGTGGCTC | 1.03 ± 0.069 |
| CAGGCTTTTA | 0.983 ± 0.028 |
| TTGGATTTGG | 1.02 ± 0.051 |
| CTGTTGGGGT | 0.988 ± 0.017 |
| CCAAACGAGT | 0.9661 ± 0.0041 |

| Sequence | switch fluorescence ratio |
| --- | --- |
| GAGGATGCTC | 1.01 ± 0.015 |
| ATGTAGCATA | 1.57 ± 0.082 |
| CAGACTGGGG | 1 ± 0.039 |
| AACTTACTTT | 1.13 ± 0.021 |
| ATTATTATGC | 0.97 ± 0.025 |
| TGGGTGTGTT | 0.995 ± 0.028 |
| GAATTTAAAG | 1.007 ± 0.0018 |
| TCGAGGAATC | 1.075 ± 0.0094 |
| GCTAAAACAG | 0.985 ± 0.026 |
| AGAGATGGGG | 0.996 ± 0.022 |
| GGGATGAGGT | 1 ± 0.033 |
| AATCCTTGAG | 1.02 ± 0.034 |
| GCCACGAGGG | 1.025 ± 0.0062 |
| AGTTAGGGGC | 0.995 ± 0.053 |
| CAGGAAAATT | 1 ± 0.032 |
| TTATGTTTG | 1.012 ± 0.0031 |
| TCGTCCAAGT | 1.07 ± 0.066 |
| ATGAGGTTAG | 0.947 ± 0.065 |
| TGCTGGCCTG | 1.01 ± 0.019 |
| TTTTTGGCGC | 1.01 ± 0.032 |
| GATTTTGTTC | 1.03 ± 0.02 |
| GGTTTTGAGG | 0.973 ± 0.011 |
| GGTTTTTGTG | 1.01 ± 0.034 |
| TAGGGATGGG | 1.02 ± 0.019 |
| ACTATCGGGA | 1.02 ± 0.037 |

| Sequence | switch fluorescence ratio |
| --- | --- |
| CGGGATGGTT | 0.97 ± 0.11 |
| CATTAATTTG | 1.01 ± 0.012 |
| AACGGGTTGG | 0.998 ± 0.047 |
| CGGCTGTTTT | 1.037 ± 0.0082 |
| AGACGGGTGG | 0.9763 ± 0.0052 |
| GTTTTGGTCC | 0.997 ± 0.012 |
| ATTGACATGT | 1.03 ± 0.037 |
| CTTTGTGGGG | 1.01 ± 0.029 |
| GTGTGGGAGT | 0.9963 ± 0.0016 |
| TTGGGTTCGT | 0.998 ± 0.037 |
| ATGTTGGGTA | 0.982 ± 0.019 |
| TGATAATTTA | 1.06 ± 0.016 |
| TTAAAATCGA | 0.972 ± 0.072 |
| TTTCTTAGTT | 1.04 ± 0.017 |
| TAAAGTGGCT | 0.985 ± 0.03 |
| ATGGTTATGC | 1.03 ± 0.051 |
| ATATTATCAA | 1 ± 0.012 |
| GACGGACAGT | 1.13 ± 0.076 |
| GATCAGAGGG | 1.008 ± 0.01 |
| ATGCACTGGA | 0.9969 ± 0.0075 |
| AAATTATGGA | 0.969 ± 0.075 |
| CCAGGAGGCG | 0.999 ± 0.015 |
| GGGTAAGCTG | 1.04 ± 0.081 |
| ACAGGGGTTG | 0.978 ± 0.033 |
| CTTCTTCGGT | 1 ± 0.015 |

| Sequence | switch fluorescence ratio |
| --- | --- |
| CGGTGAGTTG | 1.03 ± 0.04 |
| TTCCCGTCAG | 1.022 ± 0.0017 |
| CTGTTCGCCA | 1.07 ± 0.077 |
| AGCGACCCGG | 1.08 ± 0.033 |
| TTTGGGATCG | 0.98 ± 0.045 |
| CATAGATGTC | 0.989 ± 0.063 |
| TAAAATTTTA | 0.988 ± 0.023 |
| GTGCGGAGAA | 0.986 ± 0.035 |
| TTTGGAAGCC | 1 ± 0.041 |
| TGAAGATAAC | 1.02 ± 0.026 |
| ATTTTGTTTG | 0.994 ± 0.012 |
| AGAGTTTCGA | 1.01 ± 0.034 |
| ATATTGGAAG | 1.011 ± 0.01 |
| CGTGGGATAT | 1.0053 ± 0.00092 |
| AAGGTGCTGC | 1.035 ± 0.0022 |
| TATGTTGGGT | 1.02 ± 0.037 |
| GTTAAGGGCC | 0.99 ± 0.011 |
| AGTAGCGATT | 1.06 ± 0.031 |
| GTTATTTGTT | 1.068 ± 0.0071 |
| CTTAGTGGGG | 0.962 ± 0.048 |
| TTAGATTTTT | 1.002 ± 0.0087 |
| AATTCAGTTT | 1.01 ± 0.033 |
| TCGAGCATCA | 1.143 ± 0.01 |
| CGAGGGAGGC | 1.011 ± 0.0095 |
| GTCAGAACG | 1.03 ± 0.014 |

| Sequence | switch fluorescence ratio |
| --- | --- |
| TGGGTCGTGC | 0.99 ± 0.011 |
| GGAGTCTTGT | 1.01 ± 0.03 |
| CCGTTTGGCA | 1.15 ± 0.022 |
| TAGTTTTGGG | 0.9807 ± 0.0026 |
| TTCGTATAAG | 0.9936 ± 0.0076 |
| TCGTGACGAA | 1.03 ± 0.02 |
| ATGCCAAAAG | 1.01 ± 0.042 |
| TTGAGCCGGT | 1 ± 0.045 |
| GATTTTCGTC | 0.996 ± 0.032 |
| GCGCATTGGT | 1.06 ± 0.068 |
| TTTTAGTTTT | 1 ± 0.031 |
| TGAATGATGG | 1.02 ± 0.015 |
| GGGGTGTGCG | 0.9883 ± 0.0051 |
| ATGGGGAGAG | 1.02 ± 0.028 |
| TACAGCGCGT | 1.01 ± 0.021 |
| AGGGTCAAGG | 0.971 ± 0.046 |
| GTGTTGGGTG | 1.01 ± 0.011 |
| GGAGATAGGT | 1.04 ± 0.038 |
| ATTATACCTT | 1.182 ± 0.011 |
| CTGTCTGTGC | 1.09 ± 0.044 |
| GGTCGGGTTC | 0.985 ± 0.015 |
| GGGGTAAAGG | 1.04 ± 0.11 |
| TCGGCACGGA | 0.999 ± 0.031 |
| CAGTCGCGTG | 0.993 ± 0.018 |
| GGGTATGAGC | 0.969 ± 0.04 |

| Sequence | switch fluorescence ratio |
| --- | --- |
| GCCGAGGGGA | 1.05 ± 0.025 |
| TTGTGACATA | 1 ± 0.023 |
| TTTTTTACGG | 1.02 ± 0.019 |
| GCTCTGGGGG | 1.03 ± 0.039 |
| AATGGCCGGC | 0.987 ± 0.014 |
| TCAGTCAGTT | 0.991 ± 0.048 |
| GAGTACCAGG | 1.25 ± 0.017 |
| CTACATACGG | 1.52 ± 0.02 |
| GGCATCGTAG | 0.998 ± 0.021 |
| AAGGGTTTAA | 0.98 ± 0.018 |
| TAGGTAGGCA | 1 ± 0.028 |
| TGTTTTTGCT | 0.969 ± 0.033 |
| GGACTTCTTG | 0.932 ± 0.045 |
| GTTTGCGTTG | 0.979 ± 0.042 |
| TCGGAAGGAC | 1.141 ± 0.011 |
| TGGGAGAAGG | 1.02 ± 0.057 |
| TATCAATTCG | 0.997 ± 0.036 |
| TGAACGGGCC | 1.036 ± 0.00055 |
| AAACAAAAAT | 1.01 ± 0.012 |
| TATTTTAGTA | 1.01 ± 0.03 |
| TACAAGTTCT | 0.9814 ± 0.0042 |
| GTTAATATAG | 0.992 ± 0.035 |
| CATTTACCGG | 0.996 ± 0.056 |
| TATCGTCGGG | 1.008 ± 0.0064 |
| CAGATCAAGT | 1.016 ± 0.0034 |

| Sequence | switch fluorescence ratio |
| --- | --- |
| ATCATAATGT | 0.983 ± 0.032 |
| TATTACTATT | 0.999 ± 0.023 |
| AAAAAGGTTA | 0.998 ± 0.025 |
| TTAGACGCTT | 1 ± 0.011 |
| GAACAGTCCG | 1.051 ± 0.0039 |
| TTAGACGGC | 0.978 ± 0.097 |
| TTAAGCGGAG | 1.0092 ± 0.00077 |
| AGGGGCGTAC | 1.07 ± 0.022 |
| TTAATTGATG | 1.01 ± 0.014 |
| GGTTGCGGCA | 1.01 ± 0.041 |
| CTAATGTTGT | 1.02 ± 0.028 |
| TTTGGCTAAA | 1 ± 0.044 |
| TCGGTCCCTT | 0.988 ± 0.035 |
| TTTTAGTTCC | 1.05 ± 0.018 |
| GCTTCAGGGG | 1.09 ± 0.12 |
| TCTTGGACGA | 0.991 ± 0.025 |
| CGTGCACCGG | 1 ± 0.031 |
| CAGATTCGAG | 1.008 ± 0.01 |
| ATATTGGAAT | 1.02 ± 0.024 |
| AAGTACGTTC | 1.25 ± 0.035 |
| TCGTTCGCTA | 3.15 ± 0.39 |
| GGGATGAAGA | 1 ± 0.013 |
| GGGGGAGGTA | 0.977 ± 0.031 |
| AGGCAAAGTT | 0.989 ± 0.026 |
| GGTATGTTAA | 0.98 ± 0.014 |

| Sequence | switch fluorescence ratio |
| --- | --- |
| ACGCGTCGGC | 1.06 ± 0.013 |
| ATATCTATGG | 0.994 ± 0.025 |
| GGTTGGTTTC | 1.01 ± 0.055 |
| GAACAAGGGA | 1.004 ± 0.0086 |
| ATGTATGGGC | 0.9814 ± 0.0047 |
| TTTCGGGGAT | 1.03 ± 0.038 |
| GATTCGATCT | 0.993 ± 0.024 |
| TCGTTTATTT | 1.02 ± 0.014 |
| AGGTTCTCTG | 0.9942 ± 0.0011 |
| CGCGAGAGTT | 1.02 ± 0.0018 |
| GCTGATGATA | 0.967 ± 0.026 |
| GTGTGGGTAT | 0.985 ± 0.016 |
| GGCATTTTAT | 1.01 ± 0.061 |
| CGGGTCGCTT | 0.9738 ± 0.004 |
| TGTGTGAAAA | 1 ± 0.032 |
| AGAGCAGGGA | 0.97 ± 0.064 |
| TGGGTTTTCT | 1.08 ± 0.28 |
| AAAAGGGGGT | 1.02 ± 0.049 |
| AGGGTTCGGA | 1.015 ± 0.0029 |
| TAAGAAGTCT | 1.04 ± 0.048 |
| TTTTAGTTGG | 0.954 ± 0.038 |
| GATACGGGGC | 1.02 ± 0.014 |
| AATTAGTGCT | 0.9938 ± 0.0069 |
| GTGGGGGATG | 1 ± 0.033 |
| TGGGACGCCG | 1.01 ± 0.015 |
